According to IntAct's records for PubMed 9537418:

B1: Merlin (Homo sapiens), P35240-3 (parent)
chain: MAGAIASRMSFSSLKRKQPKTFTVRIVTMDAEMEFNCEMKWKGKDLFDLVCRTLGLRETWFFGLQYTIKDTVAWLKMDKKVLDHDVSKEEPVTFHFLAKFYPENAEEELVQEITQHLFFLQVKKQILDEKIYCPPEASVLLASYAVQAKYGDYDPSVHKRGFLAQEELLPKRVINLYQMTPEMWEERITAWYAEHRGRARDEAEMEYLKIAQDLEMYGVNYFAIRNKKGTELLLGVDALGLHIYDPENRLTPKISFPWNEIRNISYSDKEFTIKPLDKKIDVFKFNSSKLRVNKLILQLCIGNHDLFMRRRKADSLEVQQMKAQAREEKARKQMERQRLAREKQMREEAERTRDELERRLLQMKEEATMANEALMRSEETADLLAEKAQITEEEAKLLAQKAAEAEQEMQRIKATAIRTEEEKRLMEQKVLEAEVLALKMAEESERRAKEADQLKQDLQEAREAERRAKQKLLEIATKPTYPPMNPIPAPLPPDIPSFNLIGDSLSFDFKDTDMKRLSMEIEKEKVEYMEKSKHLQEQLNELKTEIEALKLKERETALDILHNENSDRGGSSKHNTIKKPQAQGRRPICI

Variants of: B1
Conditions: with sptb2_human SPTBN1, Q01082
Chain of sptb2_human SPTBN1, Q01082 (Q01082 whole entry): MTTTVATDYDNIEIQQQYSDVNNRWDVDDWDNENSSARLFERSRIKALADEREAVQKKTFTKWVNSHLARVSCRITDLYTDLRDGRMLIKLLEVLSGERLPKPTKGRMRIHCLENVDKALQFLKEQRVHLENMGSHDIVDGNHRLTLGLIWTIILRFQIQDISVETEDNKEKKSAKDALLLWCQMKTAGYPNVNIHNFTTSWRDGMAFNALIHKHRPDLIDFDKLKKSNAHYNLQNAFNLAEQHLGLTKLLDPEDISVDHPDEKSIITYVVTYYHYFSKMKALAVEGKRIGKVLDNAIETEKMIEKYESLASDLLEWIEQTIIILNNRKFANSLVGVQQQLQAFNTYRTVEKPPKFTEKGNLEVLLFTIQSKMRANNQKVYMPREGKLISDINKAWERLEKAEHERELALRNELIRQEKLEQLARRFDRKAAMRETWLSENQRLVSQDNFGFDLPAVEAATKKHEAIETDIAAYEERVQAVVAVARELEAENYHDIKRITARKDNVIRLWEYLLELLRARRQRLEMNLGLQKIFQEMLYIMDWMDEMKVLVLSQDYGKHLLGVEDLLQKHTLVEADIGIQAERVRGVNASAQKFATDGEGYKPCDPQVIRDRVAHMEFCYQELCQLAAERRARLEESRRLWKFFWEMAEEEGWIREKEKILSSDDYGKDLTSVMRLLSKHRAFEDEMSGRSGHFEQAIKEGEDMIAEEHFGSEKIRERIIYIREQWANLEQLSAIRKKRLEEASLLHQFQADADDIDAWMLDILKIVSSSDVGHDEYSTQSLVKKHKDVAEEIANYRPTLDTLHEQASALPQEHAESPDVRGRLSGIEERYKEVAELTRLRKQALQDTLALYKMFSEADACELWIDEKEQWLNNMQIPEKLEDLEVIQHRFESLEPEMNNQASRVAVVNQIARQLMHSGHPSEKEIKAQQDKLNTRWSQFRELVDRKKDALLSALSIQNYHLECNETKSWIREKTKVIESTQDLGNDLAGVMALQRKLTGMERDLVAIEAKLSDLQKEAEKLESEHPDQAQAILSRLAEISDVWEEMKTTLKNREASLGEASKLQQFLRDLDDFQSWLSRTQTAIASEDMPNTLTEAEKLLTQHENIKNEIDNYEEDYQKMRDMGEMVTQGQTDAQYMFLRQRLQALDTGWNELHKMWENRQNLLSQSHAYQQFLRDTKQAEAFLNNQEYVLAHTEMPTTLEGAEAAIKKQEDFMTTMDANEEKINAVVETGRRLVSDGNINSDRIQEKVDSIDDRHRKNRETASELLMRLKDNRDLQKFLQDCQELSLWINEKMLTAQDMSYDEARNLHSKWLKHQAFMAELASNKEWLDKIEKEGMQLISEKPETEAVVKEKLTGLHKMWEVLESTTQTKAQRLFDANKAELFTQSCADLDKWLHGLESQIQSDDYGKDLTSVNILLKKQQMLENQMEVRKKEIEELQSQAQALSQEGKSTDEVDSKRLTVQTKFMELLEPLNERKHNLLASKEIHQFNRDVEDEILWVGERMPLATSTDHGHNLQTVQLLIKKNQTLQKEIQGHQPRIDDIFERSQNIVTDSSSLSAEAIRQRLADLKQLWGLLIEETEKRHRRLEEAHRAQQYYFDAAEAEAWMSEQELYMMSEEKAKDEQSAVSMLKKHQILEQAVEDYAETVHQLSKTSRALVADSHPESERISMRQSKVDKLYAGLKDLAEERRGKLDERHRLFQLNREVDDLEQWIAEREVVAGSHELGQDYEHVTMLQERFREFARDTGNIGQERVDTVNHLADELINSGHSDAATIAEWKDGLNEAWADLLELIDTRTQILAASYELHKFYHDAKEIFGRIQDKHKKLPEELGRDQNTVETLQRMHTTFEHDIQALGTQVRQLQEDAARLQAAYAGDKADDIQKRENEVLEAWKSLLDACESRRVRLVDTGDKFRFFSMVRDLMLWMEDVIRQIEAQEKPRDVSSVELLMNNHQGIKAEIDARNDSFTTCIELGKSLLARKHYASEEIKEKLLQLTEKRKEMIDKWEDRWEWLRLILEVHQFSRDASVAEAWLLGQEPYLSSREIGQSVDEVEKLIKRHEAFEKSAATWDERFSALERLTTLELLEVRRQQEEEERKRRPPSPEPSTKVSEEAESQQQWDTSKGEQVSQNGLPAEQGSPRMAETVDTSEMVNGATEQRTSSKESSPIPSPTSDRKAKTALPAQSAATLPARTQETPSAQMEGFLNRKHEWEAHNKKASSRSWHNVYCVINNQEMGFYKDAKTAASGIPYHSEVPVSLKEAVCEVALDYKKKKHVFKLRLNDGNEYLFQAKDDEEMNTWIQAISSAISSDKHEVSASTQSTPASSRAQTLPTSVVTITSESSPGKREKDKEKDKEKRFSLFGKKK

effect of a mutation on the interaction	Variant
decreasing interaction strength	MAGAIASRMSFSSLKRKQPKTFTVRIVTMDAEMEFNCEMKWKGKDLFDLVCRTLGLRETWFFGLQYTIKDTVAWLKMDKKVLDHDVSKEEPVTFHFLAKFYPENAEEELVQEITQHLFFLQVKKQILDEKIYCPPEASVLLASYAVQAKYGDYDPSVHKRGFLAQEELLPKRVINLYQMTPEMWEERITAWYAEHRGRARDEAEMEYLKIAQDLEMYGVNYFAIRNKKGTELLLGVDALGLHIYDPENRLTPKISFPWNEIRNISYSDKEFTIKPLDKKIDVFKFNSSKLRVNKLILQLCIGNHDLFMRRRKADSLEVQQMKAQAREEKARKQMERQRLAREKQMREEAERTRDELERRLLQMKEEATMANEALMRSEETADLLAEKAQITEEEAKLLAQKAAEAEQEMQRIKATAIRTEEEKRLMEQKVLEAEVLALKMAEESERRAKEADQLKQDLQEAREAERRAKQKLLEIATKPTYPPMNPIPAPLPPDIPSFNLIGDSLSFDFKDTDMKRLSMEIEKEKVEYMEKSKHPQEQLNELKTEIEALKLKERETALDILHNENSDRGGSSKHNTIKKPQAQGRRPICI [L535P]
decreasing interaction strength	MAGAIASRMSFSSLKRKQPKTFTVRIVTMDAEMEFNCEMKWKGKDLFDLVCRTLGLRETWFFGLQYTIKDTVAWLKMDKKVLDHDVSKEEPVTFHFLAKFYPENAEEELVQEITQHLFFLQVKKQILDEKIYCPPEASVLLASYAVQAKYGDYDPSVHKRGFLAQEELLPKRVINLYQMTPEMWEERITAWYAEHRGRARDEAEMEYLKIAQDLEMYGVNYFAIRNKKGTELLLGVDALGLHIYDPENRLTPKISFPWNEIRNISYSDKEFTIKPLDKKIDVFKFNSSKLRVNKLILQLCIGNHDLFMRRRKADSLEVQQMKAQAREEKARKQMERQRLAREKQMREEAERTRDELERRPLQMKEEATMANEALMRSEETADLLAEKAQITEEEAKLLAQKAAEAEQEMQRIKATAIRTEEEKRLMEQKVLEAEVLALKMAEESERRAKEADQLKQDLQEAREAERRAKQKLLEIATKPTYPPMNPIPAPLPPDIPSFNLIGDSLSFDFKDTDMKRLSMEIEKEKVEYMEKSKHLQEQLNELKTEIEALKLKERETALDILHNENSDRGGSSKHNTIKKPQAQGRRPICI [L360P]
disrupting interaction strength	MAGAIASRMSFSSLKRKQPKTFTVRIVTMDAEMEFNCEMKWKGKDLFDLVCRTLGLRETWFFGLQYTIKDTVAWLKMDKKVLDHDVSKEEPVTFHFLAKFYPENAEEELVQEITQHLFFLQVKKQILDEKIYCPPEASVLLASYAVQAKYGDYDPSVHKRGFLAQEELLPKRVINLYQMTPEMWEERITAWYAEHRGRARDEAEMEYLKIAQDLEMYGVNYFAIRNKKGTELLLGVDALGLHIYDPENRLTPKISFPWNEIRNISYSDKEFTIKPLDKKIDVFKFNSSKLRVNKLILQLCIGNHDLFMRRRKADSLEVQQMKAQAREEKARKQMERQRLAREKQMREEAERTRDELERRLLQMKEEATMANEALMRSEETADLLAEKAQITEEEAKLLAQKAAEAEQEMQRIKATAIRTEEEKRLMEQKVLEAEVLALKMAEESERRAKEADQLKQDLQEAREAERRAKQKLLEIATKPTYPPMNPIPAPLPPDIPSFNLIGDSLSFDFKDTDMKRLSMEIEKEKVEYMEKSKHLQEPLNELKTEIEALKLKERETALDILHNENSDRGGSSKHNTIKKPQAQGRRPICI [Q538P]
